The text below walks through data of patent publication US20250042994A1.

In assay [1] the target is human CD19 on the surface of cells (human) (UniProt P15391). The assay can be described thus: FACS on Raji cells.
Assay [2] deals with monkey CD19 on cells (monkey). Briefly: FACS on HEK293T-monkey CD19.
For assay [3], the target named is human CD19 on the surface of cells (human) (UniProt P15391). The assay can be described thus: FACS on CHO-K1-human CD19-1C4.
The target is the same in assay [4]. Briefly: FACS on CHO-K1-human CD19-1C9.
The target is the same in assay [5]. The assay can be described thus: FACS on CHO-K1-human CD19-2C8.
Assay [6] shares this target. Briefly: FACS on CHO-K1-human CD19-2G4.
The target in assay [7] is human CD19 on Raji cells (human) (UniProt P15391). The assay can be described thus: FACS on Raji cells.
Chain of human CD19 on Raji cells (human) (P15391 20-556): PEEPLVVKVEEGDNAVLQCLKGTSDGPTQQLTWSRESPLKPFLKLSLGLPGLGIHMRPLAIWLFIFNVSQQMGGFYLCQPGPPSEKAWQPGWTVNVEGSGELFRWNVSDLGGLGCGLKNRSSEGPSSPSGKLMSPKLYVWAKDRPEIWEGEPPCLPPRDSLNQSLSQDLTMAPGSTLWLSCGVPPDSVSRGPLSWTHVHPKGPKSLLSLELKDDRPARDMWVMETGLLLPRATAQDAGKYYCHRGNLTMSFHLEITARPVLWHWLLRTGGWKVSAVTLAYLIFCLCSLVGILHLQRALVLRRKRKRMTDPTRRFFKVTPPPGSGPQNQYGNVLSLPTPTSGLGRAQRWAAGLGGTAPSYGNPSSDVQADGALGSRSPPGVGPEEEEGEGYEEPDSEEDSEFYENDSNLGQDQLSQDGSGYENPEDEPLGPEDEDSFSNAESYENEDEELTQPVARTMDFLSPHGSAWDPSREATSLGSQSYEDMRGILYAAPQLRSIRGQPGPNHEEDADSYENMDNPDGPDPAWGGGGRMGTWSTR
Assay [8] has as its target Human CD19-his protein (human) (UniProt P15391). The assay can be described thus: ELISA, antibody at 10 nM. (In an ELISA, binding on a coated surface is turned into a signal by an enzyme label.)
For assay [9] the target is unchanged. The assay can be described thus: ELISA, antibody at 100 nM.
For assay [10] the target is unchanged. The assay can be described thus: ELISA, antibody at 0.01 nM.
Assay [11] shares this target. Briefly: ELISA, antibody at 0.10 nM.
For assay [12] the target is unchanged. The assay can be described thus: ELISA, antibody at 1.00 nM.
The target is the same in assay [13]. Briefly: ELISA, antibody at 0.001 nM.
The target is the same in assay [14]. The assay can be described thus: ELISA, antibody at 0.0001 nM.
Assay [15] addresses human CD19 on CHO-K1-human CD19 cells (human) (UniProt P15391). The assay can be described thus: FACS on CHO-K1-human CD19 cells.
Assay [16] concerns the target monkey CD19 on HEK293T-monkey CD19 cells (monkey). Briefly: FACS on HEK293T-monkey CD19 cells.
Assay [17] addresses cynomolgus monkey CD19 on peripheral blood B cells (cynomolgus monkey (Macaca fascicularis)). Briefly: FACS, cynomolgus PBMC, CD20+ B cells. A general note: In flow cytometry, cells or beads pass a laser one at a time.
Assay [18] deals with Human CD19-his protein (human) (UniProt P15391). The assay can be described thus: ELISA, coated human CD19-His.
Chain of Human CD19-his protein (human) (P15391 20-291 limits assumed): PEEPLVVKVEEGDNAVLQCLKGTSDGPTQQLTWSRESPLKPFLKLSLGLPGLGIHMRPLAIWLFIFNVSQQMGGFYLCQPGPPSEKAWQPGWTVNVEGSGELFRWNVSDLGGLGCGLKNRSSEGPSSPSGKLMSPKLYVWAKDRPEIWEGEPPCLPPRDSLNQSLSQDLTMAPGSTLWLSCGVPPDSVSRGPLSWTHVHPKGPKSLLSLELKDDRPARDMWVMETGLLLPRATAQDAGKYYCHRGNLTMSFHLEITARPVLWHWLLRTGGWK

Chain of human CD19 on the surface of cells (human) (P15391 20-556): as the sequence (P15391 20-556) above
Chain of human CD19 on CHO-K1-human CD19 cells (human) (P15391 20-556): as above

IgG subtype control (antibody): the mean fluorescence intensity in [1] is 72; in assay [2], 62; in [3], 50; in [4], 50; in assay [5] it was 50; in [6] it was 50.

As to anti-hel-hIgG1 (antibody), the Maximum mean fluorescence intensity in assay [7] worked out at 435; in assay [15], 99; in assay [16], 90. The OD450 in assay [8] came to 0.05; in [9] it was 0.08; in [10], 0.05; in assay [11] it was 0.05; in assay [12], 0.05; in [13], 0.05. This substance showed an OD450 in assay [14] of 0.04. Also, in [17], the Proportion of chimeric antibody positive cells to B cells (%) at 1 nM amounted to 1%. The same substance showed a Proportion of chimeric antibody positive cells to B cells (%) at 10 nM in [17] of 1%. In addition, the Proportion of chimeric antibody positive cells to B cells (%) at 100 nM in assay [17] was 1%.

With anti-hel-mIgG1 (antibody), the Maximum mean fluorescence intensity in assay [7] was 651 MFI. Further, in assay [18], the OD450 at 0.0001 nM was determined as 0.09 OD450, the OD450 at 0.001 nM was determined as 0.08 OD450, the OD450 at 0.01 nM was determined as 0.08 OD450 and the OD450 at 0.10 nM came to 0.08 OD450. In assay [18], the OD450 at 1.00 nM was found to be 0.08 OD450 and the OD450 at 100 nM is 0.17 OD450. Also, the Maximum mean fluorescence intensity in assay [15] was determined as 82 MFI.
